Measured values taken from PMC7781312 (bioRxiv, 2021).

Molecular target: prefusion-stabilized SARS-CoV S ectodomain trimer (SARS-CoV 2P S) (SARS-CoV Urbani (AAP13441), UniProt P59594, stabilised)
Test: BLI

B1: B6 monoclonal antibody (recombinant IgG with human constant regions) (antibody, V domains shown)
VH: EVQLQQSGPVLVKPGASVRMSCKASGYTITDYYLNWVKQSHGKSLEWLGVLNPYSGGSLYSQTFKGKATLTVDRSSSTAYLELNSLTSEDSAVYYCARQLGRGNGLDYWGQGTSVTVSS
VL: NIMMTQSPSSLAVSAGEKVTMSCKSSQSVLHSSDQKNYLAWYQQKPGQSPKLLIYWASTRESGVPDRFTGSGSGTDFTLTISSVQAEDLAVYFCHQYLSSYTFGGGTKLEIK
- binding result: binds
